Measurements as given in US20220396617A1 (BEIJING MABWORKS BIOTECH, published 2022).
Changes are numbered by the printed parent chain.

T1: human TIGIT expressed on HEK293A cells (human, UniProt Q495A1 22-244)
T1 sequence: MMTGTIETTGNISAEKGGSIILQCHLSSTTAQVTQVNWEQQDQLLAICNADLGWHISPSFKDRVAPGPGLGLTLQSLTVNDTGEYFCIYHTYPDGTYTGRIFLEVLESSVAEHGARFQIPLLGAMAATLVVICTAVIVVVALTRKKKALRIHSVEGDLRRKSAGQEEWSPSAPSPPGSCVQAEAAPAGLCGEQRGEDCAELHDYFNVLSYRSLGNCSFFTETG

T2: human TIGIT (ECD)-his (human, UniProt Q495A1 22-141)
T2 construct: bought protein; also called hTIGIT(ECD)-his; Cat #: 10917-H08H, Sino Biological; not shown: his tag of the bought protein
T2 sequence: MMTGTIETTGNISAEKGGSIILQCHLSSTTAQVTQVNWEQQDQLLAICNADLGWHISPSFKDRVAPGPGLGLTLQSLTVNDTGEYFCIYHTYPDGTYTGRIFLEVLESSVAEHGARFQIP

T3: TIGIT (ECD)-hFc (human, UniProt Q495A1 22-141)
T3 construct: bought protein; also called recombinant human TIGIT (ECD)-hFc; Cat #: 10917-H02H, Sino Biological; not shown: human Fc (hFc) of the bought protein
T3 sequence: T2 sequence

B1: 70E11-VH3VL3 (antibody, human IgG1, kappa, V domains shown)
VH: QVQLVQSGAEVKKPGASVKVSCKASGYTFTSYNVHWVRQAPGQGLEWIGTIYPGNLATSYNQKFKGRVTLTADKSTSTVYMELSSLRSEDTAVYYCARSGTMDYWGQGTTVTVSS
VL: EIVLTQSPGTLSLSPGERATLSCRASSSISSTYLHWYQQKPGASPKLLIYNTQNLASGIPDRFSGSGSGTSYTLTISRLEPEDFAVYYCQQFGGYPLITFGAGTKLELKR
notes: humanized, human IgG1/kappa
B2: 70E11-VH5VL3 (antibody, human IgG1, kappa, V domains shown)
VH: B1 VH with R38K, A40T, R67K, V68A
VL: B1 VL
notes: humanized, human IgG1/kappa; also called 70E11H5L3
B3: 70E11-VH4VL3 (antibody, human IgG1, kappa, V domains shown)
VH: B1 VH with R38K, A40T
VL: B1 VL
notes: humanized, human IgG1/kappa
B4: 70E11-VH1VL1 (antibody, human IgG1, kappa, V domains shown)
VH: B1 VH with I48M, L70M, A72R, K74T
VL: B1 VL with A43Q, S44A, K46R, S71D, Y72F
notes: humanized, human IgG1/kappa
B5: 70E11-VH2VL4 (antibody, human IgG1, kappa, V domains shown)
VH: B1 VH with I48M, K74T
VL: B1 VL with L21M, S22T, I59V, D61A
notes: humanized, human IgG1/kappa; also called 70E11H2L4
B6: 70E11-VH4VL2 (antibody, human IgG1, kappa, V domains shown)
VH: B1 VH with R38K, A40T
VL: B1 VL with A43Q, S44A, Y72F
notes: humanized, human IgG1/kappa
B7: 149G11-VH3VL2 (antibody, human IgG1, kappa, V domains shown)
VH: QVQLVQSGAEVKKPGASVKVSCKASGYTFTNYWIHWVKQAPGQGLEWIGDIYPGGRYSNYNEKFRGRVTLTADTSTSTVYMELSSLTSEDTAVYYCARYYESAMDFWGQGTTVTVSS
VL: DIVMTQSPDSLAVSLGERATINCKSSQNLLYNSNQKSYLAWFQQKPGQPPKLLIYWASTRESGVPDRFSGSGSGTDFTLTISSLQAEDLAVYYCQQYYNYPFTFGAGTKLELKR
notes: humanized, human IgG1/kappa
B8: 149G11-VH3VL3 (antibody, human IgG1, kappa, V domains shown)
VH: B7 VH
VL: B7 VL with I21V, P49S
notes: humanized, human IgG1/kappa
B9: 149G11-VH4VL3 (antibody, human IgG1, kappa, V domains shown)
VH: B7 VH with A40R, Q43H
VL: B7 VL with I21V, P49S
notes: humanized, human IgG1/kappa
B10: 149G11-VH2VL3 (antibody, human IgG1, kappa, V domains shown)
VH: B7 VH with K38R
VL: B7 VL with I21V, P49S
notes: humanized, human IgG1/kappa; also called 149G11H2L3
B11: 149G11-VH2VL2 (antibody, human IgG1, kappa, V domains shown)
VH: B7 VH with K38R
VL: B7 VL
notes: humanized, human IgG1/kappa
B12: 149G11-VH4VL2 (antibody, human IgG1, kappa, V domains shown)
VH: B7 VH with A40R, Q43H
VL: B7 VL
notes: humanized, human IgG1/kappa
B13: 70E11-VH3VL4 (antibody, human IgG1, kappa, V domains shown)
VH: B1 VH
VL: B1 VL with L21M, S22T, I59V, D61A
notes: humanized, human IgG1/kappa
B14: 149G11-VH1VL1 (antibody, human IgG1, kappa, V domains shown)
VH: B7 VH with K38R, I48M, L70M, A72R, T87R
VL: B7 VL with F42Y, L89V
notes: humanized, human IgG1/kappa
B15: 70E11-VH5VL2 (antibody, human IgG1, kappa, V domains shown)
VH: B1 VH with R38K, A40T, R67K, V68A
VL: B1 VL with A43Q, S44A, Y72F
notes: humanized, human IgG1/kappa
B16: 70E11-VH5VL4 (antibody, human IgG1, kappa, V domains shown)
VH: B1 VH with R38K, A40T, R67K, V68A
VL: B1 VL with L21M, S22T, I59V, D61A
notes: humanized, human IgG1/kappa
B17: 70E11-VH2VL2 (antibody, human IgG1, kappa, V domains shown)
VH: B1 VH with I48M, K74T
VL: B1 VL with A43Q, S44A, Y72F
notes: humanized, human IgG1/kappa
B18: 70E11-VH3VL2 (antibody, human IgG1, kappa, V domains shown)
VH: B1 VH
VL: B1 VL with A43Q, S44A, Y72F
notes: humanized, human IgG1/kappa
B19: 70E11-VH4VL4 (antibody, human IgG1, kappa, V domains shown)
VH: B1 VH with R38K, A40T
VL: B1 VL with L21M, S22T, I59V, D61A
notes: humanized, human IgG1/kappa
B20: 70E11-VH2VL3 (antibody, human IgG1, kappa, V domains shown)
VH: B1 VH with I48M, K74T
VL: B1 VL
notes: humanized, human IgG1/kappa
B21: Etigilimab (antibody, V domains shown)
VH: QVQLQESGPGLVKPSETLSLTCAVSGYSITSDYAWNWIRQPPGKGLEWIGYISYSGSTSYNPSLRSRVTISRDTSKNQFFLKLSSVTAADTAVYYCARRQVGLGFAYWGQGTLVTVSS
VL: DIQMTQSPSSLSASVGDRVTITCKASQDVSTAVAWYQQKPGKAPKLLIYSASYRYTGVPSRFSGSGSGTDFTFTISSLQPEDIATYYCQQHYSTPWTFGQGTKVEIK

Target: T1, human TIGIT expressed on HEK293A cells
Assay: cell-based or functional assay

Row | Binder | NK92-mediated ADCC against HEK293A/human TIGIT cells, EC50
1 | B1 | 0.0191 nM
2 | B2 | 0.00714 nM
3 | B3 | 0.00729 nM
4 | B4 | 0.00436 nM
5 | B5 | 0.0172 nM
6 | B6 | 0.00912 nM
7 | B7 | 0.013 nM
8 | B8 | 0.014 nM
9 | B9 | 0.0177 nM
10 | B10 | 0.00795 nM
11 | B11 | 0.0162 nM
12 | B12 | 0.0184 nM

Target: T2, human TIGIT (ECD)-his
Assay: SPR (BIAcore 8K), human TIGIT (ECD)-his on CM5 chip, antibody injected
Procedure: They were also tested in SPR assays for their binding affinities to human and monkey TIGITs using the BIAcore™ 8K instrument (GE Life Sciences, US). […] The binding affinities were calculated with the RUs of blank controls subtracted. The association rate (kₐ) and dissociation rate (kd) were calculated using the one-to-one Langmuir binding model (BIA Evaluation Software, GE Life Sciences, US). The equilibrium dissociation constant KD was calculated as the kd/kₐ ratio.

Row | Binder | Kd
13 | B1 | 0.124 nM
14 | B2 | 0.25 nM
15 | B5 | 0.43 nM
16 | B13 | 0.0502 nM
17 | B9 | 0.0022 nM
18 | B10 | 0.00329 nM
19 | B12 | 0.00309 nM

Target: T1, human TIGIT expressed on HEK293A cells
Assay: FACS, HEK293A/human TIGIT cells, serially diluted antibody (protocol of Example 5) [A]

Row | Binder | EC50 (read off the curve)
20 | B7 | ~0.2 µg/mL
21 | B14 | ~0.2 µg/mL
22 | B8 | ~0.2 µg/mL
23 | B9 | ~0.2 µg/mL
24 | B10 | ~0.2 µg/mL
25 | B11 | ~0.2 µg/mL
26 | B12 | ~0.2 µg/mL

Target: T3, TIGIT (ECD)-hFc
Assay: FACS blocking assay (protocol of Example 7): serially diluted antibody pre-incubated with TIGIT (ECD)-hFc, then binding of TIGIT (ECD)-hFc to A549/human PVR cells measured; blocked ligand: human PVR [B]

Row | Binder | IC50 (read off the curve)
27 | B7 | ~2 µg/mL
28 | B14 | ~2 µg/mL
29 | B8 | ~2 µg/mL
30 | B9 | ~2 µg/mL
31 | B10 | ~2 µg/mL
32 | B12 | ~2 µg/mL

Target: T3, TIGIT (ECD)-hFc
Assay: FACS blocking assay (protocol of Example 7): serially diluted antibody pre-incubated with TIGIT (ECD)-hFc, then binding of TIGIT (ECD)-hFc to A549/human PVR cells measured; blocked ligand: human PVR [A]

Row | Binder | IC50 (read off the curve)
33 | B1 | ~4 µg/mL
34 | B15 | ~4 µg/mL
35 | B2 | ~4 µg/mL
36 | B3 | ~4 µg/mL
37 | B4 | ~4 µg/mL
38 | B16 | ~4 µg/mL
39 | B17 | ~4 µg/mL
40 | B18 | ~4 µg/mL
41 | B19 | ~4 µg/mL
42 | B20 | ~4 µg/mL
43 | B5 | ~4 µg/mL
44 | B13 | ~4 µg/mL
45 | B6 | ~4 µg/mL
46 | B21 | ~4 µg/mL
